± gives the standard deviation of the averaged measurements.
System: ATP
Test: switch fluorescence ratio, 500 uM ATP over buffer (Cy3 cluster intensity, sum of 5 cycles each) (fold (ratio)); higher = stronger signal-on switching upon ATP binding; sequences stand for … in TCGTCGGCAGCGTCAGATGTGTATAAGAGACAGTTTTTTTTTTTTTTTTTTTTTTTTT…TC
Conditions: aptamer strand: ATP DNA aptamer (quencher-CACCTGGGGGAGTATTGCGGAGGAAGG + anchor), 100 nM annealed; ATP concentration: 500 uM
Method in brief: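 Per cluster, summed Cy3 intensity from the target cycles was divided by that from the buffer cycles to give the fluorescence ratio, then averaged per switch-domain sequence. Clusters outside 100-1000 RFU were excluded. The Cy3-labelled switching-strand clusters, on a modified Illumina MiSeq flow-cell, were annealed to 100 nM quencher-labelled ATP aptamer and imaged in selection buffer, then after 15 min with 500 uM ATP at 22 °C, for five cycles with NaOH stripping and re-annealing between them.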
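Note: ATP exposure 15 min at 22 °C before imaging.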

For AGATTCATGT, the switch fluorescence ratio was 0.988 ± 0.018.
For AGATTCCGGT, the switch fluorescence ratio was 0.976 ± 0.016.
With AGATTCTGTT the switch fluorescence ratio was 0.945 ± 0.022.
For AGATTGTACG, the switch fluorescence ratio was 1.006 ± 0.0017.
With AGATTGTATG the switch fluorescence ratio was 1.01 ± 0.039.
Sequence AGATTGTCTC has a switch fluorescence ratio of 0.9573 ± 0.0063.
With AGATTGTGGT the switch fluorescence ratio was 0.99 ± 0.018.
With AGATTTATTT the switch fluorescence ratio was 1.004 ± 0.0097.
AGATTTGGCA showed a switch fluorescence ratio of 0.988 ± 0.03.
Sequence AGATTTGTGT has a switch fluorescence ratio of 0.959 ± 0.024.
AGATTTGTTG gave a switch fluorescence ratio of 0.978 ± 0.034.
Work on AGATTTTCCT yielded a switch fluorescence ratio of 1.19 ± 0.35.
With AGATTTTGGT the switch fluorescence ratio was 0.9954 ± 0.0026.
Sequence AGATTTTGTC has a switch fluorescence ratio of 0.972 ± 0.011.
AGATTTTGTT was tested, and the switch fluorescence ratio was 0.975 ± 0.017.
With AGCAAAACGT the switch fluorescence ratio was 1.17 ± 0.19.
With AGCAAACGGG the switch fluorescence ratio was 1.26 ± 0.015.
Work on AGCAAAGTA yielded a switch fluorescence ratio of 0.9748 ± 0.0062.
Sequence AGCAAATATA has a switch fluorescence ratio of 1.058 ± 0.0057.
AGCAACGTTC showed a switch fluorescence ratio of 1.07 ± 0.081.
AGCAAGGGGC gave a switch fluorescence ratio of 1.02 ± 0.023.
AGCAAGTCAG was tested, and the switch fluorescence ratio was 1.07 ± 0.013.
Sequence AGCAATCGTT has a switch fluorescence ratio of 1.54 ± 0.071.
Work on AGCAATTGGT yielded a switch fluorescence ratio of 1.062 ± 0.0086.
AGCACAAAAA was tested, and the switch fluorescence ratio was 1.12 ± 0.096.
AGCACGGGTT was tested, and the switch fluorescence ratio was 1.21 ± 0.3.
AGCAGAAATT showed a switch fluorescence ratio of 1.02 ± 0.054.
Work on AGCAGCGGGC yielded a switch fluorescence ratio of 0.997 ± 0.043.
For AGCAGGGACT, the switch fluorescence ratio was 1.051 ± 0.0077.
In the case of AGCAGGGCGG, the switch fluorescence ratio is reported as 0.983 ± 0.011.
Sequence AGCAGGGCTT has a switch fluorescence ratio of 1.04 ± 0.05.
With AGCAGGTGGG the switch fluorescence ratio was 1.05 ± 0.076.
Sequence AGCAGTTTAC has a switch fluorescence ratio of 1.17 ± 0.054.
AGCATAAGC showed a switch fluorescence ratio of 1.04 ± 0.012.
Sequence AGCATGTCGT has a switch fluorescence ratio of 1.01 ± 0.015.
In the case of AGCATTGGCT, the switch fluorescence ratio is reported as 1.016 ± 0.0011.
For AGCCACATGG, the switch fluorescence ratio was 0.98 ± 0.031.
Work on AGCCACGCGT yielded a switch fluorescence ratio of 1.01 ± 0.012.
AGCCAGCTGC was tested, and the switch fluorescence ratio was 0.9924 ± 0.0095.
Work on AGCCAGGATG yielded a switch fluorescence ratio of 1.104 ± 0.0047.
AGCCCGGAAA was tested, and the switch fluorescence ratio was 1.023 ± 0.0038.
In the case of AGCCGTTTCG, the switch fluorescence ratio is reported as 0.999 ± 0.017.
For AGCCTAAGAT, the switch fluorescence ratio was 0.963 ± 0.012.
For AGCCTACGGG, the switch fluorescence ratio was 1.0466 ± 0.00084.
AGCCTATTGT gave a switch fluorescence ratio of 0.972 ± 0.035.
Work on AGCCTGCCCG yielded a switch fluorescence ratio of 1.05 ± 0.037.
AGCCTTTCGT showed a switch fluorescence ratio of 1.01 ± 0.054.
AGCGAATATT gave a switch fluorescence ratio of 1.08 ± 0.098.
Work on AGCGAGAGAC yielded a switch fluorescence ratio of 1.102 ± 0.0025.
For AGCGAGCGAA, the switch fluorescence ratio was 1.01 ± 0.014.

Source: the supplement of paper PMC10126150
